Experiment: soluble on expression in E. coli; label from the status in PepcDB or PDB records

With “MAHHHHHHMCADGVDKVPDETDNRETNEKKRPKRKRRYIDIDKMNFDFEEEDFASSSNEELVRRNYVNEEEYTGGYANGYTNEHMNGLPYQKDINMNSEVIRGLLEPPPIPFNDTFQKYNREISDVYVKQKKKSSGTLNIFLESQLLCIDEGAFEKENNFINNHFDNFIMRKLNVVNTTNMQDTTNQNKDLQELLKYLMSWYFSGFYSGRVSMLKELHGE” as the sequence, how does the “soluble on expression in E. coli” value read?
Its value is “soluble”.

For “GPGSMNRDPQNALLLEQMAQKTKRLLLQRSPSTVNGIRSFSRSLGIADDLGSTQVTAEELQHALQENNVSLEEHELQNIFTVLDRTGKGTIDPTDFIAVMCNNLGPLRKVWLRRVWRMFTKDPDDGSVQVCELQRQFIAEGHPAVVRHETTAAEVRKDFESAFNESTNPDGKISAQEFAEYYAGVSVSCSNDESFVALLRGVWPLPGVSRDFSLSLAKGEAQYQGSYHTEQSLAEKTAVASREAVRSALMRMIRCDHAPVALSSGAAARALCLSLAQADEAGSGFVSEAVFVGALRTHRLYVPNTSVLECLDTNGDGTVDIKYYEELLLPSPSAARLMLLARLWSRCFENKDAAYRVPVQDLHRKYHASSPADKDAFLTAWDVRTAVGGKVELEELVQWYVPQSAAVQRDKDFEALLHRQWGKYDE”, which “soluble on expression in E. coli” value is on record?
The value was “soluble”.

For “MSLENTTQIPESELHNLGLTDEEIQEFNQYLIDESLFQETVETSPIVVSDNEDAAQDPGFGLFTTNPVKHTDEHIGALYFSDLPGISNLTCTANYIGGKFWTTAHHCVEGRSRFVGFIEQSDGQYAGIEHVYTKSSDYDIALIKVGSGIDAEQFSLTRSRPAVGKMLEVVGFAVVNPFSSRATMEVTNSNTVANYPMSNLYYKDVFSAKPAGSFPYVISGGDSGAAVWSGETMYGIASGSNGSTKNLAANVGPHVSWIEQTMQNNSNSSPYEILQAFRGGLATSYPKYNQIRDLVDSSEGHHHHHH”, which “soluble on expression in E. coli” value is on record?
The value was “soluble”.

With “MSLGIRSGNNNGGFTNLTSQAPQTTQMFQSQSQLQPQPQPQPQQQQQHLQFNGSSDASSLRFGNSLSNTVNANNYSSNIGNNSINNNNIKNGTNNISQHGQGNNPSWVNNPKKRFTPHTVIRRKTTKQNSSSDINQNDDSSSMNATMRNFSKQNQDSKHNERNKSAANNDISSLLSNFNDIPPSVTLQDWQREDEFGSIPSLTTQFVTDKYTAKKTNRSAYDSKNTPNVFDKDSYVRIANIEQNHLDNNYNTAETNNKVHETSSKSSSLSAIIVFGYPESISNELIEHFSHFGHIMEDFQVLRLGRGINPNTFRIFHNHDTGCDENDSTVNKSITLKGRNNESNNKKYPIFTGESWVKLTYNSPSSALRALQENGTIFRGSLIGCIPYSKNAVEQLAGCKIDNVDDIGEFNVSMYQNSSTSSTSNTPSPPNVIITDGTLLREDDNTPAGHAGNPTNISSPIVANSPNKRLDVIDGKLPFMQNAGEGHHHHHH” as the sequence, how does the “soluble on expression in E. coli” value read?
Its value is “soluble”.

Which “soluble on expression in E. coli” value does the source give for “MGSDKIHHHHHHMDQSFQVNLNRLRYFHAILEHGSIRAAAERLNTAPSVVSRQLQLLESEIGAPLFERRQHGMIATEAATLLVEYTHACRIGLEQFHESLHGELRGRVEIALTVGYVEDLMDSVITGFLHRHPHVAVELNVRTADGVVDDVLRKRAHIGLTYNPSLPPEIRECLSVEHPTFLAVAPDHPLAKRGEPLELRDAVRYPLALMPAPYYGVGQIVHTVAHAENIPLAPRLVTNSVPAMRRFVRSGNGVAFLTRLLVEDDLERGEIVALRMRNPLFNSPCGKVLVHNERALPRAANEILARIVRDLPSFKS” here?
The value was “not soluble”.

For “MQIVSVDIGSTWTKAALFTREGDALTLVNHVLTPTTTHHLAKGFFSSLNQVLNVDNALPLLNSGEVALKYSSSAKGGLAVAAMGLVPSITLETAKVTAHSAGAKIAQYYAYKLNRRDIQALEETQPDILLFTGGTDGGEESYGLNNARVLAESKLDCAIIYAGNRDIQDEVQEILGHKDLTIVDNVLPDLDHPNPVAARQAICDIFLKRIVKGKGLDVIVDKTGEEPMPTPWTVFELVKAISNVDHSWKEFMLIDMGGATTDVYSACANTLSPDTVLHGVPEPFVKRTVEGDLGMRVSAVVVGESAKELVNVNFAQQPAQLDAFYHYLRHLVAHPDYLPANAEEKYFDTVLAGLCVGYATERHAGTKKEVCTCVGNVDLQMGRDLTTVRKVVGSGGWLSRASQFDMHHWLKYRELNDDGKRILLPTEFEYYRDSRGLLPLLANVARVDPLAAARTSIQCLTL”, which “soluble on expression in E. coli” value is on record?
Its value is “not soluble”.

Which “soluble on expression in E. coli” value does the source give for “MGSDKIHHHHHHMLLIDKLSNHENFTNTEQRIADYILKNITDIPPMNIDKLSKVTYTSHSAVVRLTKKLGFEGFKDFKVAISEAVYSQTTNMNSVDANFPFDSNDSVSTISKKVAELSVESIQRTFAQLDERLIEEAANTIAKSERIFLFAQGDSQIRARSFQNKLVKLNRFAILGEEYSDEDWTAANLTKKDCAIFISYGGRISQYERMLTHFSENKIPSVVLTGNQKSPLIRLAQTAIVTTQNEYDFLKISTFSSQITFEYLLDTIFSVIYAKEYQQNIINLKNKFNLIQRGTLSEGLAKEHDSK” here?
Its value is “not soluble”.

For “MNSSSTLQKLLDRRGQAANGNSATQAVQWQEGMNLTLHVNGDSLTMLAEIINLRADPQDDILLRKLLAHAFPGLRLRRGALTINPDENTLVYSYEHDFLALDKTRFENLLANFAETTQELRNTAQRLR”, which “soluble on expression in E. coli” value is on record?
The value was “not soluble”.

With “MGSDKIHHHHHHMPNHDALAGGKVHLRRGVDLQVSHSPGVYPPLVFIHGGTGNRFNFRMQYEFAQAQGWEVLAYDLGGNGQSSRYSRYSIGRHCRDLARLLVRFGVESPVLCCHSYGVPIGLEFVQHHPVSAIIAIAGGTHDLAPWWEIPLMKFMAGGGRYLLHLPGVQKINKLLSTSYSHSVMERFFVENPPPTDFDAYKGLEIFWDYNFFIRHPLPKNLHIPALVITADKDPTFTANMGDELANHFDDGTHLHFAKGGHLVMAESAELVNEAIANWLIQKLTIN” as the sequence, how does the “soluble on expression in E. coli” value read?
The value was “not soluble”.

For “MSLKKLIAVAVLSACGSLAHANTNIPNYNTDAHLYEFTQTYDLVVPKGSQGQTNLWVPLPFNGEYQQVKSIHFEGNYMNAYVTENNKYGAKTLFATWNKDAQKRDLKVMMVIETKDREPMVKGALENYTPPKDIQYSVDVQEYLKATPHIKTDGIVKEFPDKILGKETNPLKKAELIHHWFVKNMERDNSVLGCGDGDVEKILTTGVLKGKCTDINSVFVALARAAGIPAREIFGIRLGAAEKMGKYSKGAFGSANEQGIANVSGGQHCRAEFYLAGFGWVPVDSADVAKMRLAEKKSVEDKDTQAVAKYLFGNWEANWVGFNHARDFDLYPQPELAPINNFGYPYAEVGGDPLNSFDPKEFKYDYVSKKLEGGSHHHHHH”, which “soluble on expression in E. coli” value is on record?
The value was “soluble”.

For “EHAPATTGPLPSAPRDVVASLVSTRFIKLTWRTPASDPHGDNLTYSVFYTKEGIARERVENTSHPGEMQVTIQNLMPATVYIFRVMAQNKHGSGESSAPLRVETQPE”, which “soluble on expression in E. coli” value is on record?
The value was “soluble”.

Which “soluble on expression in E. coli” value does the source give for “RNFKMIDNLSKVYGVELGYASRIKLLRAVFVNMAAAGASELAIDAGMDLMSMDLAGKVSARAGQGLGVGILTARLGLKAMALLRPLPWYPDRQVKLGTIRKAVVAKVASITMKP” here?
The value was “not soluble”.

With “MGSDKIHHHHHHMEKIIITATAESIEQVKELLVAGVDRIYVGEADHALRIPTNFTYDELREIAELVHSAGKELTVAANALMHQDMMDNIKPFMELMREIKVDYLVVGDTGIFYINKRDGYNFKLIYDTSVFVTSSRQINFWKDHGAVEAVLAREIPSEELFDIAKNLEMPAEILVYGASVIHHSKRTLLQNYYNFTKADETDLSRGRGLFLAEPSDPDSHYSIFEDKHGTHIFINNDIDMMTKLSELDEHGYHNWKLDGIYCPGQNFVEIVKLFVQARDLIEKGEFTYDQAFLLDEQVRKLHPAERGLDTGFYEFDRNKVK” as the sequence, how does the “soluble on expression in E. coli” value read?
Its value is “not soluble”.

With “MDPGQRPNPFGAPGAIPKKPCLSQGSPGTSGSGAPCDEPSRSESPGEGPSGTGGSAAAGDITRQAVVAAITEWSRTRQLRISTGASEGKASIKDWIVCQVNSGKFPGVEWEDEERTRFRIPVTPLADPCFEWRRDGELGVVYIRERGNMPVDASFKGTRGRRRMLAALRRTRGLQEIGKGISQDGHHFLVFRVRKPEEEQCVECGVVAGAVHDFNNMARLLQEGFFSPGQCLPGEIVTPVPSCTTAEGQEAVIDWGRLFIRMYYNGEQVHELLTTSQSGCRISSALRRDPAVHYCAVGSPGQVWLPNVPNLACEIAKRELCDTLDACAKGILLTSSCNGIFCVCYHNGPVHFIGNTVPPDSGPLLLPQGKPTRIFNPNTFLVGLANSPLPAPSHVTCPLVKLWLGKPVAVGKLEPHAPSPRDFAARCSNFSDACVVLEIMPKPLWDAMQ” as the sequence, how does the “soluble on expression in E. coli” value read?
The value was “soluble”.

For “GPGSMYPGAVGCPWRRLDACVETSYSWALNVMSTNTSKAAVRQSKLTWDEGELTSARLKNDRNGKKARISASGSFRIRAMILACAPSSLAATPADNLPETASTLSFCEMLFNAGVAPLKTPAISSFEACTDVRVCVEAFKTGMPLFSSADEGASGNFFRYPPAAITTACSAETKLIDQSCFTRTTPFRHMGNAA”, which “soluble on expression in E. coli” value is on record?
The value was “not soluble”.

With “MGSDKIHHHHHHMQIYASLLLILKLERKLCIFSGKVMELYEMYYFAFNKSSEPMLFADPNTGRIFDVNQAFLALLGYAKDEVMVKTTFDLGLLPEEDSQPRQPLWVKTKNGSLKSGMVSATDLVHKEKMMRLMVFQEQSENGNFTLEEMLTQTISLISKISEFRDPYTSGHQKRTQKLACAIASEMKLSGEAIHHVSMAAAIHDVGKIYISSDILNKPGKLTQLEYQMLQTHVEVGYEIIKDFQLPWQIPEIISQHHERLDGSGYPKGLTASQIFLESKILAVADVVDAMNSHRPYRPALGIEAALEEICNYKGEKYDSEVVEHCVRLFKEKQAMPNRFKI” as the sequence, how does the “soluble on expression in E. coli” value read?
Its value is “not soluble”.

With “QNNKDEKKITKIGVLQFVSHPSLDLIYKGIQDGLAEEGYKDDQVKIDFMNSEGDQSKVATMSKQLVANGNDLVVGIATPAAQGLASATKDLPVIMAAITDPIGANLVKDLKKPGGNVTGVSDHNPAQQQVELIKALTPNVKTIGALYSSSEDNSKTQVEEFKAYAEKAGLTVETFAVPSTNEIASTVTVMTSKVDAIWVPIDNTIASGFPTVVSSNQSSKKPIYPSATAMVEVGGLASVVIDQHDLGVATGKMIVQVLKGAKPADTPVNVFSTGKSVINKKIAQELGITIPESVLKEAGQVI” as the sequence, how does the “soluble on expression in E. coli” value read?
Its value is “not soluble”.

With “MNEQIPHDKSLDNSLTLLKEGYLFIKNRTERYNSDLFQARLLGKNFICMTGAEAAKVFYDTDRFQRQNALPKRVQKSLFGVNAIQGMDGSAHIHRKMLFLSLMTPPHQKRLAELMTEEWKAAVTRWEKADEVVLFEEAKEILCRVACYWAGVPLKETEVKERADDFIDMVDAFGAVGPRHWKGRRARPRAEEWIEVMIEDARAGLLKTTSGTALHEMAFHTQEDGSQLDSRMAAIELINVLRPIVAISYFLVFSALALHEHPKYKEWLRSGNSREREMFVQEVRRYYPFGPFLGALVKKDFVWNNCEFKKGTSVLLDLYGTNHDPRLWDHPDEFRPERFAEREENLFDMIPQGGGHAEKGHRCPGEGITIEVMKASLDFLVHQIEYDVPEQSLHYSLARMPSLPESGFVMSGIRRKS” as the sequence, how does the “soluble on expression in E. coli” value read?
Its value is “soluble”.

For “MGHHHHHHSHMLENRDYTLIIDKSGSMATPDQKGGRNRWVTAQESTLALASKCEQFDPDGITLYVFSGRFKRYENVTSAKVNQIFQENDPSGTTDLAAVLKHATDDYFQRKGAGKTKPNGETILVVTDGEPDDRKAVMRVIIEASRRMDKDEELAISFIQVGSDAQATRFLKVLDDELQGAGAKFDICDTVTMEDMEDLSLSEVLLNAITD”, which “soluble on expression in E. coli” value is on record?
Its value is “soluble”.

For “QRQPGHFCRSVLLAPVGAFLWQRSLPALMSPLPIRKTIHWLLANKPKLFAHKFSRHAWPDSHYRRMGAGYARCRAFIPYWDMVRADTALPLLEWVQDPIELVWGDQDKVLGIDQAAAWSAILARADLTISLKPGWGHYPWIDSPAEFAQWLES”, which “soluble on expression in E. coli” value is on record?
The value was “not soluble”.

From the DeepSol protein solubility set
